Assay results reported in paper PMC7926950, “Constructing an Efficient Bacillus subtilis Spore Display by Using Cohesin−Dockerin Interactions” (Molecules, 2021).

Substrate: O=[N+]([O-])c1ccccc1O[C@@H]1O[C@H](CO)[C@H](O)[C@H](O)[C@H]1O
Assay: purified protein
Type: biochemical, Geobacillus kaustophilus
Settings: free enzyme, not displayed on spores, ONPG 0.83-20 mM, general assay printed as 20 mM potassium phosphate pH 6.0, 75 °C (spore assay)

B1: Bsβ–Gal (Geobacillus kaustophilus) (protein)
chain: MNVLSSICYGGDYNPEQWPEEIWYEDAKLMQKAGVNLVSLGIFSWSKIEPSDGVFDFEWLDKVIDILYDHGVYINLGTATATTPAWFVKKYPDSLPIDESGVILSFGSRQHYCPNHPQLITHIKRLVRAIAERYKNHPALKMWHVNNEYACHVSKCFCENCAVAFRKWLKERYKTIDELNERWGTNFWGQRYNHWDEINPPRKAPTFINPSQELDYYRFMNDSILKLFLTEKEILREVTPDIPVSTNFMGSFKPLNYFQWAQHVDIVTWDSYPDPREGLPIQHAMMNDLMRSLRKGQPFILMEQVTSHVNWRDINVPKPPGVMRLWSYATIARGADGIMFFQWRQSRAGAEKFHGAMVPHFLNENNRIYREVTQLGQELKKLDCLVGSRIKAEVAIIFDWENWWAVELSSKPHNKLRYIPIVEAYYRELYKRNIAVDFVRPSDDLTKYKVVIAPMLYMVKEGEDENLRQFVANGGTLIVSFFSGIVDENDRVHLGGYPGPLRDILGIFVEEFVPYPETKVNKIYSNDGEYDCTTWADIIRLEGAEPLATFKGDWYAGLPAVTRNCYGKGEGIYVGTYPDSNYLGRLLEQVFAKHHINPILEVAENVEVQQRETDEWKYLIIINHNDYEVTLSLPEDKIYQNMIDGKCFRGGELRIQGVDVAVLREHDEAGKV
notes: full-length bgaB in pET-28a (PCR from pJS-cotY-bgaB), expressed in E. coli BL21(DE3), heat treatment and Ni-NTA, free enzyme; printed as tetrameric
Protein B1 has a Km of 2970 ± 50 µM.
